2 molecules from paper PMC4358012 can be followed below.

For this data set, the target named is T1, CebR-His6 (Streptomyces scabies 87-22, UniProt C9Z452 1-352).
T1 sequence: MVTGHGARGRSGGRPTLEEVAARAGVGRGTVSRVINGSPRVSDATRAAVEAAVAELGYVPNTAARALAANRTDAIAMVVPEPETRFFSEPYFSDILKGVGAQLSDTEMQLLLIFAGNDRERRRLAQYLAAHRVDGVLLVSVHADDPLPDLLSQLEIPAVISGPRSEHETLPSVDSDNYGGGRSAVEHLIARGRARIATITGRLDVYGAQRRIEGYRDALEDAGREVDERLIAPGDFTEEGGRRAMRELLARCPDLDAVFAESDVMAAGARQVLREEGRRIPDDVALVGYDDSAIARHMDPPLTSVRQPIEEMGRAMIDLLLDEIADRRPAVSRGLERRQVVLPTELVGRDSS
Description: EMSA. For orientation: In EMSA bound probe runs differently from free probe, usually more slowly.

B1: cbstxtB probe (dsDNA)
DNA 1: CTCCCCCAGGGGGAGCGCTCCCACTGCGCTGTA
DNA 2: TACAGCGCAGTGGGAGCGCTCCCCCTGGGGGAG
Take B1: the binding result is recorded as “binds”.

B2: cbstxtR-A probe (dsDNA)
DNA 1: TGTCAATAAGCGGGAGCGCTCCCACAGCGCTCTC
DNA 2: GAGAGCGCTGTGGGAGCGCTCCCGCTTATTGACA
With B2, the binding result is “binds”.
